Data from paper PMC11024442, “Lipocalin-type prostaglandin D synthase: a glymphopathy marker in idiopathic hydrocephalus” (Frontiers in Aging Neuroscience, 2024).

Biological target: T1, human recombinant Tau-441 (human, UniProt P10636-8 1-441)
T1 construct: Commercial recombinant protein; source: bought: WAKO
Assay: SPR; Biacore 2000; recombinant human Δ1–22 L-PGDS amine-coupled to a CM5 chip; Tau-441 flowed at 3, 2 and 1 nM; dissociation on washing with Dulbecco's phosphate-buffered saline; Kd from the sensorgrams with BIAevaluation 3.1
Details: both partners purified

T1 sequence (P10636 other isoform, or with tags, fused parts or gaps): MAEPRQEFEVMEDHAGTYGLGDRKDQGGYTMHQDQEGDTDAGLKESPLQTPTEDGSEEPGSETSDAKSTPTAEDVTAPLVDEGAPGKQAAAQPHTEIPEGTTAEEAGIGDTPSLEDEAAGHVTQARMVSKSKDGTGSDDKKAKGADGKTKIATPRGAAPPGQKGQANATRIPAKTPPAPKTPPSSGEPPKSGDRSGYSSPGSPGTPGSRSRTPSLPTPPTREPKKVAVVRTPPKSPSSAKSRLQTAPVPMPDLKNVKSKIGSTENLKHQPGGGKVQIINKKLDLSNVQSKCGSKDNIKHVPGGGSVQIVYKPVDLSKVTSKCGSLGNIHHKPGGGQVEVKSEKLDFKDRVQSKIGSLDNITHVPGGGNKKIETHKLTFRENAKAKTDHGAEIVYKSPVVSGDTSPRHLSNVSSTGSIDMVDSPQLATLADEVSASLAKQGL

Kd: 910 µM
B1: human recombinant Δ1–22 L-PGDS (lipocalin-type prostaglandin D synthase without the signal sequence) (enzyme, UniProt P41222 23-190, looked up)
chain: APEAQVSVQPNFQQDKFLGRWFSAGLASNSSWLREKKAALSMCKSVVAPATDGGLNLTSTFLRKNQCETRTMLLQPAGSLGSYSYRSPHWGSTYSVSVVETDYDQYALLYSQGSKGPGEDFRMATLYSRTQTPRAELKEKFTAFCKAQGFTEDTIVFLPQTDKCMTEQ
notes: Cloned into pGEX-2T as a GST fusion and cut with thrombin; also called recombinant human ∆1–22 L-PGDS; recombinant human L-PGDS; source: E. coli BL21 (DE3), purified (glutathione-Sepharose 4B, thrombin digestion, gel filtration on HiLoad Superdex 75)
